Patent publication US20020081719

What was measured:
PPARα/RXR heterodimer = PPARα/RXR heterodimer (UniProt Q07869+P19793); assay: EMSA; conditions: cooperativity ratio; 0.5 mM ZnCl2, 4 C
PPARγ/RXR heterodimer = PPARγ/RXR heterodimer (UniProt P37231+P19793); assay: EMSA; conditions: 0.5 mM ZnCl2, 4 C
[1] = cooperativity ratio, dimer and tetramer complexes

PPARγ/RXR heterodimer, sequence (P37231 whole entry, chain 1 of 2): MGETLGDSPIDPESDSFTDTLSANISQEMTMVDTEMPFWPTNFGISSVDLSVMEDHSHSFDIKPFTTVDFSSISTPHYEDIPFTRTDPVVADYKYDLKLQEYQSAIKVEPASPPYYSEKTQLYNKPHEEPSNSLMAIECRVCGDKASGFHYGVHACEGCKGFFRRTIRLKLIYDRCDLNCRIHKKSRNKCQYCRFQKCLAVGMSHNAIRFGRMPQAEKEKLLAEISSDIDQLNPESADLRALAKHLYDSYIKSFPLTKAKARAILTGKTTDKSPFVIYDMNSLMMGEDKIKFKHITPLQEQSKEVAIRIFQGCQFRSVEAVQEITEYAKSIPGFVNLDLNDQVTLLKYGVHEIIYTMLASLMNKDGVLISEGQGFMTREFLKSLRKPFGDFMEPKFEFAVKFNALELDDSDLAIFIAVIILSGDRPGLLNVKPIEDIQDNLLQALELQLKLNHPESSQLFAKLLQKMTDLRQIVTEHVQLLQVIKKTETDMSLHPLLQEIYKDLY
PPARγ/RXR heterodimer, sequence (P19793 whole entry, chain 2 of 2): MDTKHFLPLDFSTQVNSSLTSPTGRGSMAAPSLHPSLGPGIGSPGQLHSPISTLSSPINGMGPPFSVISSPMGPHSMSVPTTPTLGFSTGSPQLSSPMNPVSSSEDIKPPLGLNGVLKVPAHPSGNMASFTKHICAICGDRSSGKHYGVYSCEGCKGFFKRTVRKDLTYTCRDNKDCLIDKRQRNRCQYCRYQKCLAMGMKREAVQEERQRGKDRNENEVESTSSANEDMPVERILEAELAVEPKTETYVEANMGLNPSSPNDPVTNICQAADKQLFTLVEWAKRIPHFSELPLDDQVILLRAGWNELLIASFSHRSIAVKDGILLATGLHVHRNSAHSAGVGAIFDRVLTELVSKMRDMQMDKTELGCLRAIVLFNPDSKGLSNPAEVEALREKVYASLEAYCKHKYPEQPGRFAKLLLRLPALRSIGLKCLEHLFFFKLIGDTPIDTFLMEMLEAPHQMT
PPARα/RXR heterodimer, sequence (Q07869 whole entry, chain 1 of 2): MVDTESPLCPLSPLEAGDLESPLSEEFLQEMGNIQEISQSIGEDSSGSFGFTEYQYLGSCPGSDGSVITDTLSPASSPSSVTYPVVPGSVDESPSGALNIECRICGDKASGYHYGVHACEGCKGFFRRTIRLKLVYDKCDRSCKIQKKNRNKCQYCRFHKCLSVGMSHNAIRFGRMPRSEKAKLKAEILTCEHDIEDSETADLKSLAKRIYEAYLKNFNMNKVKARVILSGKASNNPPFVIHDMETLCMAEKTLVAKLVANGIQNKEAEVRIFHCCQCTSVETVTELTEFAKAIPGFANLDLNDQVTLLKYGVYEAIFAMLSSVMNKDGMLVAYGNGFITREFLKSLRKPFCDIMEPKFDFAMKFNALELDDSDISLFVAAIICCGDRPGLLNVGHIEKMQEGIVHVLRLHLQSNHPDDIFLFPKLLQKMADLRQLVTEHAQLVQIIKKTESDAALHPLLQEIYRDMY
PPARα/RXR heterodimer, sequence (P19793 whole entry, chain 2 of 2): as the sequence (P19793 whole entry, chain 2 of 2) above

Sequence | binding signal (PPARα/RXR heterodimer) [KdII/KdIV] | cooperativity ratio (KdII/KdIV) (PPARγ/RXR heterodimer; [1]) | cooperativity ratio (KdII/KdIV) (PPARγ/RXR heterodimer; cooperativity ratio 34 +/- 11, 80% tetrameric)
CAAAACTAGGTCAAAGGTCAAAACTAGGTCAAAGGTCA (double strand) [(DR1)2 17] | 7 | 9 | 
CAAAACTAGGTCAAAGGTCATCAAAACTAGGTCAAAGGTCA (double strand) [(DR1)2 21] | 11.2 |  | 34
CAAAACTAGGTCAAAGGTCATGTCTTTAGGCCCAAAACTAGGTCAAAGGTCA (double strand) [(DR1)2 31] | 11.6 | 12.6 | 
